# Experimental data: US20140017242A1, “ANTI-BRADYKININ B2 RECEPTOR (BKB2R) MONOCLONAL ANTIBODY” (Diamedica, Inc., priority 2010, published 2014)
# How the values were obtained:
# RS-4;11 = assay: MTT Cell Proliferation Assay, RS-4;11; type: cell-based, human; details: 120 hours of exposure
# Source text: This Example describes characterization of the cytotoxic activity of herein described anti-BKB2R monoclonal antibodies against a panel of cancer cell lines. BxPC-3 is a human adenocarcinoma cell line originally isolated from the pancreas (pancreatic cancer) (ATCC # CRL-1687; Tan et al., Cancer Invest. 4: 15-23, 1986. PubMed: 3754176). MV-4-11 is a human biphenotypic B myelomonocytic leukemia (mixed-lineage leukemia, MLL-AF4) cell line originally isolated from the peripheral blood (ATCC # CRL-959; Lange et al., Blood 70: 192-199, 1987. PubMed: 3496132). Hep G2 is a human hepatocellular carcinoma cell line isolated from the liver (liver cancer) (ATCC # HB-8065; Aden et al., Nature 282: 615-616, 1979. PubMed: 233137). RS4;11 is a human acute lymphoblastic leukemia (mixed-lineage leukemia, MLL-AF4) cell line isolated from the bone marrow (ATTC # CRL-1873) Stong et al., Blood 65: 21-31, 1985. PubMed: 3917311). HT-29 is a human colorectal adenocarcinoma (ATTC # HTB-38) cell line isolated from the colon (colon cancer). Fogh et al., J. Natl. Cancer Inst. 58: 209-214, 1977. PubMed: 833871). NUGC-4 is a human stomach carcinoma isolated from the stomach paragastiric lymph node (JCRB # JCRB0834; Akiyama et al., Jpn. J. Surg., 18: 438-446, 1988). […]
# The anti-proliferative activity of test compounds against the indicated cell lines was evaluated in vitro using the ATCC's MTT Cell Proliferation Assay (Catalog No. 30-1010K). After the 120 hour incubation with drug (e.g., anti-BKB2R mAb or cisplatin), cell proliferation was measured by addition of MTT reagent to each well and incubation for an additional 4 hrs. […] Optical absorbance (570 nm) of the test wells was measured and then quantitated relative to control wells that received no drug. Results were expressed as percent inhibition versus compound concentration and graphed, as shown in FIGS. 19-25, for cell lines BxPC-3, MV-4;11, HepG2, RS-4;11, HT-29, NUGC-4, and PC-3, respectively.
# [1] = test system: diet induced obese (DIO) mice; assay: Oral glucose tolerance test in DIO mice, single dose of 5F12G1; type: in vivo, mouse; details: single s.c. administration 1.0, 0.2 and 0.04 mg/kg
# Protocol: This Example describes evaluation of oral glucose tolerance in diet induced obese (DIO) mice treated with the anti-BKB2R monoclonal antibody 5F12G1 (VH comprising SEQ ID NO:1, VL comprising SEQ ID NO:2). Male C57BL/6J mice (Jackson Laboratory, Bar Harbor, Me.) were maintained on a 60 kcal % fat diet with Research Diet and Arrowhead drinking water ad libitum and permitted to acclimatize for a period of eight weeks. Ten animals per group were treated according to the following treatment groups: 1, sterile PBS (vehicle control); 2, 1.0 mg/kg murine monoclonal antibody (mAb) 5F12G1; 3, 0.2 mg/kg mAb 5F12G1; 4, 0.04 mg/kg mAb 5F12G1.
# Oral Glucose Tolerance Test. The Oral Glucose Tolerance Test (OGTT) was performed on overnight fasted (16 hours) mice. […] Blood glucose levels were measured before administration of vehicle or 5F12G1 (−30 minutes) and just before glucose loading (0 minute) and at ensuing timepoints of 15, 30, 60 90 and 120 minutes using an Accu-Chek™ glucose meter (Roche Diagnostics, Indianapolis, Ind.) according to the manufacturer's instructions.
# At multiple time points (0, 15, 30, 60, 90 and 120 minutes) blood samples of approximately 50 μl each were collected and processed to isolate the plasma. The plasma samples were analyzed for insulin by an ELISA method using an ultra sensitive mouse insulin ELISA kit (Crystal Chem, Inc., Downers Grove, Ill.). […]
molecule,measurement,setting,value
"5F12G1: murine monoclonal anti-BKB2R antibody (IgG2b,κ), VH comprising SEQ ID NO:1, VL comprising SEQ ID NO:2 (antibody, listed as Mus musculus, V domains shown) VH: EVKLEESGGGLVQPGGSMKLSCVVSGFTFSDYWMSWVRHSPEMGLEWVAEIRLKSDNYATHYAESVKGRFTISRDDSKSRLYLQINSLRGEDTGIYYCTRDYYAMEYWGQGTSVTVSS VL: DVVMTQTPLSLPVSLGDQASISCRSSQTIVHSNGKTYLEWYLQKPGQSPKLLIYKVSNRFSGVPDRFSGSGSGTEFTLKISRVETEDLGVYYCFQASHVPYTFGGGTKLEIK",EC 50 Values (ng/ml) RS-4;11,RS-4;11,15000 ng/mL
same,insulin activity in OGTT,[1],dose dependently increased insulin activity
same,"area under curve (AUC) of blood glucose concentration after oral loading of glucose, compared to vehicle control",[1]; 30 min before glucose 2 g/kg,decreased
